# Source: PMC7047619 (Arteriosclerosis, thrombosis, and vascular biology, 2020)
# Biological target: wild-type αIIbβ3 on HEK 293 cells (Homo sapiens, UniProt P08514;P05106)
# Assay: flow cytometry on cells
row,binding result,Binder
1,binds,"murine mAb 7E3 (antibody, V domains shown) VH: EVQLQQSGTVLARPGASVKMSCEASGYTFTNYWMHWVKQRPGQGLEWIGAIYPGNSDTSYIQKFKGKAKLTAVTSTTSVYMELSSLTNEDSAVYYCTLYDGYYVFAYWGQGTLVTVSA VL: EIVLTQSPVTLSVTPGDSVSLSCRASRDISNNLHWFQQTSHESPRLLIKYASQSMSGIPSRFSGSGSGTDFTLSINSVETEDFGMYFCQQTNSWPYTFGGGTKLEIK"
2,binds,"abciximab (Fab, V domains shown) VH: EVQLQQSGTVLARPGASVKMSCEASGYTFTNYWMHWVKQRPGQGLEWIGAIYPGNSDTSYIQKFKGKAKLTAVTSTTSVYMELSSLTNEDSAVYYCTLYDGYYVFAYWGQGTLVTVSA VL: EIVLTQSPVTLSVTPGDSVSLSCRASRDISNNLHWFQQTSHESPRLLIKYASQSMSGIPSRFSGSGSGTDFTLSINSVETEDFGMYFCQQTNSWPYTFGGGTKLEIK"
